Measurements as given in publication doi:10.1101/2021.02.18.431788.

Molecular target: Neurofibromin (NF1), full length, isoform 1 (human) (UniProt P21359)
Assay: AUC

Substance: Neurofibromin (NF1), full length, isoform 1, P21359-2 1-2818
- stoichiometry N: 2
